Several values for one entry are separate records, joined by “and”; a condition that tells them apart may be missing. Identical values can stand only once.
Assays:
MBP-SYCP1αNcore = MBP-SYCP1αNcore (UniProt Q15431); experiment: SEC-MALS
SYCP1αNcore [1] = molecular target: SYCP1αNcore (UniProt Q15431); experiment: SEC-MALS
SYCP1αN = SYCP1αN (UniProt Q15431); experiment: SEC-MALS
SYCP1αNcore [2] = molecular target: SYCP1αNcore (UniProt Q15431); experiment: ITC

SYCP1αNcore, sequence (Q15431 206-362): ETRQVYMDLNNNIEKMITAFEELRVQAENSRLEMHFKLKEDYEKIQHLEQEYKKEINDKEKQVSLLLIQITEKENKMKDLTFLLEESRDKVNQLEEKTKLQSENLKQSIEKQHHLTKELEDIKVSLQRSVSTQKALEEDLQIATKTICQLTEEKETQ
SYCP1αN, sequence (Q15431 101-362): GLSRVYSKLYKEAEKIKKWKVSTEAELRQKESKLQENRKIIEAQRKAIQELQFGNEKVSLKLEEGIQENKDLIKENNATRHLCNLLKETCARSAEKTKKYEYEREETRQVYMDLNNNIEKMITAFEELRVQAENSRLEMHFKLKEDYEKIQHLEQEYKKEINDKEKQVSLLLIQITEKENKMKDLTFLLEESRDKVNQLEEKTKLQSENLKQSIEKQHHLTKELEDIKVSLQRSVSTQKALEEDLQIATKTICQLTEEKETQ
MBP-SYCP1αNcore, sequence (Q15431 206-362): as the sequence (Q15431 206-362) above

stoichiometry N (SYCP1 chains per SYCE3 chain) (MBP-SYCP1αNcore)	stoichiometry N (SYCP1 chains per SYCE3 chain) (SYCP1αNcore [1])	stoichiometry N (SYCP1 chains per SYCE3 chain) (SYCP1αN)	KD, single replicate (SYCP1αNcore [2])	Kd (SYCP1αNcore [2]) [nM]	Substance
2	2	–	–	–	MBP-SYCE3 (from UniProt A1L190 11-81) (natural protein)
–	2	–	–	–	SYCE3 P53Q (from UniProt A1L190 11-81) (natural protein)
–	2	2	16 nM and 10 nM and 22 nM	16	SYCE3 W41E Y44E (from UniProt A1L190 11-81) (natural protein)

From paper doi:10.1101/2022.03.06.483192
